Experimental data published in patent US20220267464A1 (Hoffmann-La Roche, published 2022).

T1: hu N(A2-B2)A-avi-His (human, biotin on the avi tag where used biotinylated)
T1 construct: chimeric soluble antigen; also called hu N(A2-B2)A-avi-His B; human CEA (A2 domain)
T1 chain: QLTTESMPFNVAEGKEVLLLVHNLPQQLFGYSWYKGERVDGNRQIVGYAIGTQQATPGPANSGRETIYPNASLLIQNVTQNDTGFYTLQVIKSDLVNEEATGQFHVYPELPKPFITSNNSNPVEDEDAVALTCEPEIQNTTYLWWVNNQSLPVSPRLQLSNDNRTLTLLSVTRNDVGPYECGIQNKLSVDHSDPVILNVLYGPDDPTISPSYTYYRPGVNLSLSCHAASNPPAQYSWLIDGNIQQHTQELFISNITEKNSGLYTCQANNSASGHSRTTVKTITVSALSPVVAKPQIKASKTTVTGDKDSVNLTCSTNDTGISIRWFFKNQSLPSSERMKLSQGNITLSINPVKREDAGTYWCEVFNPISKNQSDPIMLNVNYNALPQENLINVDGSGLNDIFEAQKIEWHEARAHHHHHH

T2: human CEACAM5 (carcinoembryonic antigen, CEA) on cells (human, UniProt P06731 35-685)
T2 construct: endogenous on MKN45 gastric adenocarcinoma cells; full-length cDNA stably transfected in the CHO-K1 clones; also called huCEACAM5; MKN45 cells
T2 sequence: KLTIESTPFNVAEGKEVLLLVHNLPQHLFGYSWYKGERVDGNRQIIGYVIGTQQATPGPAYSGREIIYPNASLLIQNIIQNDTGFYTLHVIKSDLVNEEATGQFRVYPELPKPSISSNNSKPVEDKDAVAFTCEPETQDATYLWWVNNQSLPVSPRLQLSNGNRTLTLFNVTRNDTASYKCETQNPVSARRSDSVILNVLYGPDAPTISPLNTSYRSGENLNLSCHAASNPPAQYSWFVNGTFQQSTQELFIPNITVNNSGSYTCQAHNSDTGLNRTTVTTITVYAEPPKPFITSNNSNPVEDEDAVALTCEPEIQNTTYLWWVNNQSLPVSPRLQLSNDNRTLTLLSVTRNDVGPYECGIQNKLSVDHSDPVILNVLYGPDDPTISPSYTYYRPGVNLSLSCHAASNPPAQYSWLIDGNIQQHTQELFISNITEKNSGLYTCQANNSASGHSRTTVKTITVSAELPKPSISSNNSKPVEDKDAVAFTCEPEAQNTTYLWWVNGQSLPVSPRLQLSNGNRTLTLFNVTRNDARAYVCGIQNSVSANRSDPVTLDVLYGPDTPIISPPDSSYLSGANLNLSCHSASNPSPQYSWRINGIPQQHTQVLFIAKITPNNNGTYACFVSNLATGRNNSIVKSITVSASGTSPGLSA


Assays:
hu N(A2-B2)A-avi-His = target: T1, hu N(A2-B2)A-avi-His; experiment: SPR (Biacore T200), antigen on CM5 chip, Fab as analyte
Text: Data were double-referenced against the unimmobilized flow cell 1 and a zero concentration of the analyte. The sensorgrams of the analytes were fitted to a simple 1:1 Langmuir interaction model.

[1] = target: T2, human CEACAM5 (carcinoembryonic …); experiment: flow cytometry, MKN-45 cells, goat F(ab')2 anti-human Fcγ-PE, gMFI
[2] = target: T2, human CEACAM5 (carcinoembryonic …); experiment: flow cytometry, MKN45 cells; set-up: AUC: unit not given beside the values

Binder	Kd (hu N(A2-B2)A-avi-His)	binding result [1]	AUC [2]
P1AE4138 (Fab, V domains shown, Fab fragment; Ckappa light chain; also called Fab derived from P1AE2167) VH: EVQLLESGGGLVQPGGSLRLSCAASGFTFTDYYMNWVRQAPGKGLEWLGFIGNKANGYTTEYSASVKGRFTISRDKSKNTLYLQMNSLRAEDTATYYCTRDRGLRFYFDYWGQGTTVTVSS VL: EIVLTQSPATLSLSPGERATLSCRASSSVTYIHWYQQKPGQAPRSWIYATSNLASGIPARFSGSGSGTDFTLTISSLEPEDFAVYYCQHWSSKPPTFGQGTKLEIK	1.47 nM	–	–
P1AE4137 (Fab, V domains shown, Fab fragment; also called Fab derived from P1AE2166) VH: EVQLLESGGGLVQPGGSLRLSCAASGFTFTDYYMNWVRQAPGKGLEWLGFIGNKANGYTTEYSASVKGRFTISRDKSKNTLYLQMNSLRAEDTATYYCTRDRGLRFYFDYWGQGTTVTVSS VL: EIVLTQSPATLSLSPGERATLSCRASSSVTYIHWYQQKPGSSPKSWIYATSNLASGIPARFSGSGSGTDFTLTISSLEPEDFAVYYCQHWSSKPPTFGQGTKLEIK	11.3 nM	–	–
P1AE4139 (Fab, V domains shown, Fab fragment; also called Fab derived from P1AE2176) VH: EVQLLESGGGLVQPGGSLRLSCAASGFTFTDYYMNWVRQAPGKGLEWVGFIGNKANGYTTEYSASVKGRFTISRDNSKNTLYLQMNSLRAEDTAVYYCTRDRGLRFYFDYWGQGTTVTVSS VL: EIVLTQSPATLSLSPGERATLSCRASSSVTYIHWYQQKPGSSPKSWIYATSNLASGIPARFSGSGSGTDFTLTISSLEPEDFAVYYCQHWSSKPPTFGQGTKLEIK	7.58 nM	–	–
P1AE4140 (Fab, V domains shown, Fab fragment; also called Fab derived from P1AE2177) VH: EVQLLESGGGLVQPGGSLRLSCAASGFTFTDYYMNWVRQAPGKGLEWVGFIGNKANGYTTEYSASVKGRFTISRDNSKNTLYLQMNSLRAEDTAVYYCTRDRGLRFYFDYWGQGTTVTVSS VL: EIVLTQSPATLSLSPGERATLSCRASSSVTYIHWYQQKPGQAPRSWIYATSNLASGIPARFSGSGSGTDFTLTISSLEPEDFAVYYCQHWSSKPPTFGQGTKLEIK	7.62 nM	–	–
P1AE3122 (antibody, IgG1, V domains shown, huIgG1 P329G LALA; also called MFE-H27 / MFE-L24) VH: QVQLVQSGAEVKKPGASVKVSCKASGFNIKDSYMHWVRQAPGQGLEWMGWIDPENGDTEYAPKFQGRVTMTTDTSISTAYMELSRLRSDDTAVYYCARGTPTGPYYFDYWGQGTLVTVSS VL: DIQMTQSPSSLSASVGDRVTITCRASSSVSYMHWYQQKPGKAPKLLIYSTSNLASGVPSRFSGSGSGTDFTLTISSLQPEDFATYYCQQRSSYPLTFGGGTKLEIK	–	no binding (tested: about 300 nM)	422
P1AE3123 (antibody, IgG1, V domains shown, huIgG1 P329G LALA; also called MFE-H26 / MFE-L24) VH: QVQLVQSGAEVKKPGASVKVSCKASGFNIKDSYMHWVRQAPGQGLEWMGWIDPENGGTNYAQKFQGRVTMTTDTSISTAYMELSRLRSDDTAVYYCNEGTPTGPYYFDYWGQGTLVTVSS VL: DIQMTQSPSSLSASVGDRVTITCRASSSVSYMHWYQQKPGKAPKLLIYSTSNLASGVPSRFSGSGSGTDFTLTISSLQPEDFATYYCQQRSSYPLTFGGGTKLEIK	–	no binding (tested: about 300 nM)	1090
P1AE3124 (antibody, IgG1, V domains shown, huIgG1 P329G LALA; also called MFE-H25 / MFE-L24) VH: QVQLVQSGAEVKKPGASVKVSCKASGYTFKDSYMHWVRQAPGQGLEWMGWIDPENGDTEYAPKFQGRVTMTTDTSISTAYMELSRLRSDDTAVYYCNEGTPTGPYYFDYWGQGTLVTVSS VL: DIQMTQSPSSLSASVGDRVTITCRASSSVSYMHWYQQKPGKAPKLLIYSTSNLASGVPSRFSGSGSGTDFTLTISSLQPEDFATYYCQQRSSYPLTFGGGTKLEIK	–	no binding (tested: about 300 nM)	847

Further lines, results first:

Kd (hu N(A2-B2)A-avi-His)	binding result [1]	AUC [2]	Binder
0.559 nM	–	–	P1AE0289 CEA (A5B7) Fab (parental murine antibody) (Fab, V domains shown, Fab fragment) VH: EVKLVESGGGLVQPGGSLRLSCATSGFTFTDYYMNWVRQPPGKALEWLGFIGNKANGYTTEYSASVKGRFTISRDKSQSILYLQMNTLRAEDSATYYCTRDRGLRFYFDYWGQGTTLTVSS VL: QTVLSQSPAILSASPGEKVTMTCRASSSVTYIHWYQQKPGSSPKSWIYATSNLASGVPARFSGSGSGTSYSLTISRVEAEDAATYYCQHWSSKPPTFGGGTKLEIK
1.7 nM	–	–	P1AE4135 (Fab, V domains shown, Fab fragment; also called Fab derived from P1AE2164) VH: EVQLLESGGGLVQPGGSLRLSCAASGFTFTDYYMNWVRQAPGKGLEWLGFIGNKANGYTTEYSASVKGRFTISRDKSKNTLYLQMNSLRAEDTATYYCTRDRGLRFYFDYWGQGTTVTVSS VL: QTVLTQSPATLSLSPGERATLSCRASSSVTYIHWYQQKPGSSPKSWIYATSNLASGIPARFSGSGSGTDYTLTISSLEPEDFAVYYCQHWSSKPPTFGQGTKLEIK
1.83 nM	–	–	P1AE4141 (Fab, V domains shown, Fab fragment; also called Fab derived from P1AE2179) VH: EVQLLESGGGLVQPGGSLRLSCAASGFTFTDYYMNWVRQAPGKGLEWVGFIGNKANGYTTEYSASVKGRFTISRDKSKNTLYLQMNSLRAEDTAVYYCARDRGLRFYFDYWGQGTTVTVSS VL: QTVLTQSPATLSLSPGERATLSCRASSSVTYIHWYQQKPGSSPKSWIYATSNLASGIPARFSGSGSGTDYTLTISSLEPEDFAVYYCQHWSSKPPTFGQGTKLEIK
2.92 nM	–	–	P1AE4143 (Fab, V domains shown, Fab fragment; also called Fab derived from P1AE2182) VH: EVQLLESGGGLVQPGGSLRLSCAASGFTFTDYYMNWVRQAPGKGLEWVGFIGNKANGYTTEYSASVKGRFTISRDKSKNTLYLQMNSLRAEDTAVYYCARDRGLRFYFDYWGQGTTVTVSS VL: EIVLTQSPATLSLSPGERATLSCRASSSVTYIHWYQQKPGQAPRSWIYATSNLASGIPARFSGSGSGTDFTLTISSLEPEDFAVYYCQHWSSKPPTFGQGTKLEIK
1.25 nM	–	–	P1AE4136 (Fab, V domains shown, Fab fragment; also called Fab derived from P1AE2165) VH: EVQLLESGGGLVQPGGSLRLSCAASGFTFTDYYMNWVRQAPGKGLEWLGFIGNKANGYTTEYSASVKGRFTISRDKSKNTLYLQMNSLRAEDTATYYCTRDRGLRFYFDYWGQGTTVTVSS VL: QTVLTQSPATLSLSPGERATLSCRASSSVTYIHWYQQKPGQAPRLLIYATSNLASGIPARFSGSGSGTDFTLTISSLEPEDFAVYYCQHWSSKPPTFGQGTKLEIK
2.64 nM	–	–	P1AE4142 (Fab, V domains shown, Fab fragment; also called Fab derived from P1AE2181) VH: EVQLLESGGGLVQPGGSLRLSCAASGFTFTDYYMNWVRQAPGKGLEWVGFIGNKANGYTTEYSASVKGRFTISRDKSKNTLYLQMNSLRAEDTAVYYCARDRGLRFYFDYWGQGTTVTVSS VL: EIVLTQSPATLSLSPGERATLSCRASSSVTYIHWYQQKPGSSPKSWIYATSNLASGIPARFSGSGSGTDFTLTISSLEPEDFAVYYCQHWSSKPPTFGQGTKLEIK
